# Measured values published in article PMC11115250.
# Biological target: PPARγ (plasmid-encoded, Addgene #8862) (UniProt P37238)
substance,measurement,value
"ZFP407 (plasmid-encoded, Origene cat. MR214555) (natural protein)","PPRE luciferase reporter in 293T cells, PPARγ co-transfected with WT ZFP407 against PPARγ alone",> 2 fold
